Patent US20230235039A1 (REGENECORE BIOTECH, published 2023)
Numbering of substitutions follows the chain as printed.

B1: humanized Fc-fused single-domain antibody 1B3-V2 (Fc fusion, not shown: a dimerising Fc or GST)
chain (part 1 of 2): QVQLVESGGGSVQAGGSLRLSCAASGITASTSCMGWFRQSPGKEREGSLATIYDASTSYADSVKGRFTISRDNSKNILYLQMNNLRAEDTAVYYCAAARYCMFWSHPSYWGQGTQVTVSS
chain (part 2 of 2): HHHHHH
notes: Humanized variant of 1B3; vector RJK-V4-hFC
B2: Fc fusion protein of anti-IL-5 single-domain antibody 1B3 (Fc fusion, not shown: a dimerising Fc or GST)
chain (part 1 of 2): B1 chain (part 1 of 2) with A55G, R71V, S74A, R86K, A87P, V92M, R99K
chain (part 2 of 2): HHHHHH
notes: Vector RJK-V4-hFC; Embodiments name a human IgG4 Fc; also called clone 1B3
B3: humanized Fc-fused single-domain antibody 2B3-V2 (Fc fusion, not shown: a dimerising Fc or GST)
chain (part 1 of 2): QVQLVESGGGSVQAGGSLRLSCAASGNTFSFSTYCMGWFRQSPGKEREGSLATIYDASTAYAGSVKGRFTISRDNSKNILYLQMNNLRAEDTAVYYCAAARYCMFWSHPSYWGQGTQVTVSS
chain (part 2 of 2): HHHHHH
notes: Humanized variant of 2B3; vector RJK-V4-hFC
B4: Fc fusion protein of anti-IL-5 single-domain antibody 2B3 (Fc fusion, not shown: a dimerising Fc or GST)
chain (part 1 of 2): B3 chain (part 1 of 2) with A57G, R73V, S76A, R88K, A89P, V94M, R101K, H108D
chain (part 2 of 2): HHHHHH
notes: Vector RJK-V4-hFC; also called clone 2B3
B5: single-domain antibody 1B3 (VHH, expressed in E. coli) (VHH)
VHH: B1 chain (part 1 of 2) with A55G, R71V, S74A, R86K, A87P, V92M, R99K
notes: pMECS-VHH expressed in E. coli HB2151, purified on Ni-column; not shown: C-terminal tags from vector pMECS (HA tag, and the His tag implied by Ni-column purification)
B6: single-domain antibody 1B8 (VHH, expressed in E. coli) (VHH)
VHH: B1 chain (part 1 of 2) with A55G, R66Q, R71V, S74A, R86K, A87P, V92M, R99K
notes: as for B5

The binders below were run against T1, human recombinant IL-5 protein with a histidine tag at carboxyl terminal (human, UniProt P05113 20-134) (assay: BLI (Octet 96), binding molecule on sensor, IL-5 antigen 200 nM and 2-fold dilutions).
T1 construct: range 20-134; Expressed in 293F cells; also called hrIL-5-cHis; human IL-5 protein; not shown: histidine tag at carboxyl terminal
Protocol: Formulation of SD buffer: A proper amount of bovine serum albumin and Tween 20 were dissolved in 1×PBS (pH 7.4), so that the mass (or volume) fractions of bovine serum albumin and Tween 20 were 0.1% and 0.02% respectively. The IL-5 binding molecule was formulated in the SD buffer to a concentration of 10 μg/mL. Formulation of antigen working solution: the antigen was formulated in the SD buffer to 200 nM, and then diluted by a 2-fold gradient in a total of 5 concentration gradients. In addition, a blank control of SD buffer was also provided. A proper amount of 0.1M glycine stock solution was diluted by 10-fold in deionized water and mixed uniformly, to obtain a regeneration solution. Octet 96 and the Data Acquisition software in its supporting computer were run. The bottom and side of the acquisition probe were cleaned using a lens tissue with a proper amount of 75% ethanol. The instrument was pre-warmed for 15 min or more. Sensor pre-wetting: sensor was soaked in the SD buffer for 10 min or more before the assay. Then, the machine procedure was set according to baseline→antibody→baseline→binding antigen→dissociating antigen→regenerating sensor for assay operation.

Binder	Kd	koff	kon
B1	1.02 nM	0.000184 s⁻¹	180000 M⁻¹ s⁻¹
B2	0.88 nM	0.000132 s⁻¹	149000 M⁻¹ s⁻¹
B3	2.06 nM	0.000406 s⁻¹	197000 M⁻¹ s⁻¹
B4	1.6 nM	0.000295 s⁻¹	184000 M⁻¹ s⁻¹

These binders were tested against T1, human recombinant IL-5 protein with a … (assay: ELISA, IL-5 protein coated on the plate, VHH titrated, anti-HA tag HRP secondary antibody, OD450).
Protocol: 50 μL of 1 μg/mL IL-5 protein was coated on an ELISA plate at 4° C. overnight. The plate was washed. 200 μL of 5% milk was added for blocking at 37° C. for 1 h. The IL-5 protein-specific single-domain antibody (VHH) obtained in Example 1 was diluted to 2 μg/mL, and then diluted by a 5-fold gradient, in a total of 8 concentration gradients. The plate was washed. 50 μL of antibody was added in duplicate wells, and then incubated at 37° C. for 1 h. The plate was washed. 50 μL of mouse anti-HA tag HRP secondary antibody was added, and then incubated at 37° C. for 30 min. The plate was washed (for multiple times). 50 μL of TMB that had been restored to room temperature was added to react at room temperature in the dark for 15 min. 50 µL of stopping solution (1N HCl) was added. The resultant was measured using a microplate reader and then recorded. The curve was plotted.

Binder	EC50 (read off the curve)
B5	~6 nM
B6	~4 nM
